# B1: 30 bp dsRNA (30f/30r) (dsRNA)
# RNA 1: CGAUACCGUCGACCUCGAGGGGGGGCCCGG
# RNA 2: CCGGGCCCCCCCUCGAGGUCGACGGUAUCG
# What was measured:
# BsMiniIII Δ5 = target: T1, BsMiniIII Δ5 (Bacillus subtilis ATCC 23857, UniProt O31418 1-143, del91-95); assay: filter binding; 1 mM Ca2+; affinity not affected vs wild type; Filter binding: 10 mM Tris-HCl pH 7.5, 5 mM NaCl, 1 mM CaCl2, room temperature, 1 h; 0.01 µM labeled 30 bp dsRNA, 0.1-4 µM enzyme; settings: protein: recombinant; tags: C-terminal His6; chain copies: 2; label: 32P end label (33P in Methods for the substrate); blunt
# T1 sequence: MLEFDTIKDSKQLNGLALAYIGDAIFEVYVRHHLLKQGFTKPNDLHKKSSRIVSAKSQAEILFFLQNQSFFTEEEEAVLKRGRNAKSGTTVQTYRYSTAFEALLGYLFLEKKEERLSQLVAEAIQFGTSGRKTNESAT
# BsMiniIII Δ10 = target: T2, BsMiniIII Δ10 (Bacillus subtilis ATCC 23857, UniProt O31418 1-143, del86-95); assay: as above; settings: protein: recombinant; tags: C-terminal His6; chain copies: 2; label: 32P end label (33P in Methods for the substrate); blunt
# T2 sequence: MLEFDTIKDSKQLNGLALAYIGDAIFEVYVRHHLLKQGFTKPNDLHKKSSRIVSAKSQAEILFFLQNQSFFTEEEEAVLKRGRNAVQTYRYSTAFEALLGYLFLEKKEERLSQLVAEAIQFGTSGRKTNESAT
binder,measurement,setting,value
B1,binding result,BsMiniIII Δ5,binds
same,binding result,BsMiniIII Δ10,binds

# Reference: PMC4357697, “Sequence-specific cleavage of dsRNA by Mini-III RNase”
